The record followed here is patent US20140086916A1 (Merck Sharp & Dohme, published 2014).

Where “and” joins values, the source holds several entries; their conditions need not be identical. Identical values can stand only once. Like-named read-outs stand apart in the source and are kept apart here.

Assay [1] has as its target T1, FcγRIIA H (UniProt P12318 34-217, limits assumed).
T1 construct: also called FcgRIIA H
T1 sequence (looked up): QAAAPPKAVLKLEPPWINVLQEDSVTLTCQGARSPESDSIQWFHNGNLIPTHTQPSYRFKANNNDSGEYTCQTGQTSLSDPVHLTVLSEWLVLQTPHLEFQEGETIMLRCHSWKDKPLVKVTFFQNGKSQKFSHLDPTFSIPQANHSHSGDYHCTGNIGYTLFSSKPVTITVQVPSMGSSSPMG
Description: fold change of the Table 12 affinities. On the procedure: (§1) Fcγ receptor binding assays were carried out as described (Shields, et al. (2001) J. Biol. Chem. 276:6591-6604) with minor modifications. High protein binding 96-well plates (Corning Costar) were coated with 100 μL per well of Fcγ receptor solutions in PBS at the following concentrations: 1 μg/mL for both FcγRI (R&D Systems) and FcγRIIa (Pichia pastoris produced), 2 μg/mL for FcγRIIb (P. pastoris produced), 0.8 μg/mL for FcγRIIIa-F158, and 0.4 μg/mL for FcγRIIIa-V158 (both P. pastoris produced). All Pichia pastoris produced receptors were expressed and purified as described (Li, et al. (2006) Nature Biotechnology 24:210-215). Monomeric antibody samples added to the FcγRI plate were serially diluted in assay diluent (1×PBS, 1% BSA, and 0.05% Tween20) and 100 μL, per well was added to the plate. Antibody samples prepared for the remaining receptors require a one hour dimerization step with half molar ratio of goat anti-human IgG F(ab′)2 F(ab′)2 that is conjugated with alkaline phosphatase for detection. These dimerized F(ab′)2/antibody complexes were also serially diluted and 100 μL per well were added to the remaining receptor plates and all plates were incubated for one hour at room temperature. FcγRI bound sample antibody was detected using the same goat anti-human IgG F(ab′)2 alkaline phosphatase conjugated F(ab′)2. Sample antibody binding was quantified by measuring excitation at 340 nm and emission at 465 nm after 18 hour incubation with SuperPhos, 4-MUP Fluorescence AP Substrate Detection System (Virolabs).

Assay [2] concerns the target T2, FcγRIIb (Pichia pastoris produced) (UniProt P31994 43-217, limits assumed).
T2 construct: also called FcgRIIB; CD32B
T2 sequence (looked up): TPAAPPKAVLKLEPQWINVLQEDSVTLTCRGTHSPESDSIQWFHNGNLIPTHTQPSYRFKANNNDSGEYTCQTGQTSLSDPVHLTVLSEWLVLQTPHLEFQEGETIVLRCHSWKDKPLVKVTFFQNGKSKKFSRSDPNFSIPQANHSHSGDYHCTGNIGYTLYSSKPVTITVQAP
Description: fold change of the Table 12 affinities. On the procedure:
as §1

Assay [3] deals with T3, FcγRIIIa-F158 (Pichia pastoris produced) (UniProt P08637 17-208, limits assumed).
T3 construct: also called FcγRIIIA LF; FcgRIIIA LF
T3 sequence (P08637 17-208 limits assumed): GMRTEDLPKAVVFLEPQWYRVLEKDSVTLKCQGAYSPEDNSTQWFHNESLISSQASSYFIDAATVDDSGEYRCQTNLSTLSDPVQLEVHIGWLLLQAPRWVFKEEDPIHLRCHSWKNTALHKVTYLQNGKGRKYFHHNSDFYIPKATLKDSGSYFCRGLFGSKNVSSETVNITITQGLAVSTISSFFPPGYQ
Description: fold change of the Table 12 affinities. On the procedure: as §1

Assay [4] addresses T2, FcγRIIb (Pichia pastoris produced). Description: FcγR affinity assay 'as described in Example 7', n = 3; printed as Affinity (nM) ± STDEV. On the procedure:
as §1

For assay [5], the target named is T1, FcγRIIA H. Nature of the assay: FcγR affinity assay 'as described in Example 7', n = 3; printed as Affinity (nM) ± STDEV; footnote: values > ~5000 nM mean a poor binder. The procedure: as §1
The target in assay [6] is T3, FcγRIIIa-F158 (Pichia pastoris produced). The assay is described as above. The procedure: as §1
The target in assay [7] is T4, FcγRIIIa-V158 (Pichia pastoris produced) (UniProt P08637 17-208, limits assumed).
T4 construct: also called FcγRIIIA LV; FcgRIIIA LV
T4 sequence (P08637 17-208 F176V limits assumed): as the sequence (P08637 17-208 limits assumed) above, with F160V counted along it
The assay is described as above. On the procedure:
as §1

For the next assay, the target named is T5, wild-type human PCSK9 (human, UniProt Q8NBP7 31-692, limits assumed).
T5 construct: also called PCSK9 antigen
Nature of the assay: SPR (Biacore T100), average KD of the six YGLY25267 runs. On the procedure: The CM5 chip was immobilized on all flowcells with mouse anti-human IgG (Fc specific) according to the Biacore Human Antibody Capture Kit (Cat# BR-1008-39) to ˜7000RU. Anti-PCSK9 antibodies were captured on the chip to ˜500RU followed by analyte injections of wild-type human PCSK9 from 64.1 nM to 2.0 nM. Each flowcell was regenerated between each analyte injection with 3M MgCl for 40 seconds at 10 uL/min. Data was analyzed with Biacore T100 Evaluation Software using the 1:1 binding model using at least 5 point concentration range sensogram.

Assay [8] addresses T1, FcγRIIA H. Nature of the assay: fold change of the Table 12 affinities (arrow not given). The procedure: as §1, with “These dimerized F(ab′)2/antibody complexes were also serially diluted and 100 μL per well were added to the remaining receptor plates and all plates were incubated for one hour at room temperature.” left out
In assay [9] the target is T4, FcγRIIIa-V158 (Pichia pastoris produced). Nature of the assay: fold change of the Table 12 affinities; Table 13 fold change computed from the Table 12 affinities. On the procedure:
as §1, with “These dimerized F(ab′)2/antibody complexes were also serially diluted and 100 μL per well were added to the remaining receptor plates and all plates were incubated for one hour at room temperature.” left out

For assay [10], the target named is T3, FcγRIIIa-F158 (Pichia pastoris produced). Description: fold change of the Table 12 affinities (arrow not given); Table 13 fold change computed from the Table 12 affinities. The procedure:
as §1, with “These dimerized F(ab′)2/antibody complexes were also serially diluted and 100 μL per well were added to the remaining receptor plates and all plates were incubated for one hour at room temperature.” left out

Assay [11] has as its target T2, FcγRIIb (Pichia pastoris produced). Description: ELISA-type plate assay, FcγR coated, antibody dimerized with AP-conjugated goat anti-human IgG F(ab')2, RFU readout. On the procedure: as §1
A general note: ELISA stands for enzyme-linked immunosorbent assay.

Assay [12] shares this target. The assay is described as above. The procedure: as §1
The source holds these as a separate data set.

Assay [13] shares this target. The assay is described as above. The procedure:
as §1
This is another data set of the same source.

The target is the same in assay [14]. The assay is described as above. On the procedure: as §1
The source holds these as a separate data set.

Assay [15] concerns the target T3, FcγRIIIa-F158 (Pichia pastoris produced). Nature of the assay: FcγR affinity assay 'as described in Example 7', n = 3; printed as Affinity (nM) ± STDEV; footnote: values > ~5000 nM mean a poor binder; Table 12 affinity (nM) assay, n = 3; value outside the tested concentration range. The procedure:
as §1, with “These dimerized F(ab′)2/antibody complexes were also serially diluted and 100 μL per well were added to the remaining receptor plates and all plates were incubated for one hour at room temperature.” left out

Assay [16] deals with T4, FcγRIIIa-V158 (Pichia pastoris produced). The description is as above. The procedure:
as §1, with “These dimerized F(ab′)2/antibody complexes were also serially diluted and 100 μL per well were added to the remaining receptor plates and all plates were incubated for one hour at room temperature.” left out

B1: human IgG1 Fc ("hFc") QM (F243A/V264A/S267E/L328F quadruple mutein Fc domain) (other)
chain: AEPKSCDKTHTCPPCPAPELLGGPSVFLAPPKPKDTLMISRTPEVTCVVADVEHEDPEVKFNWYVDGVEVHNAKTKPREEQYNSTYRVVSVLTVLHQDWLNGKEYKCKVSNKAFPAPIEKTISKAKGQPREPQVYTLPPSRDELTKNQVSLTCLVKGFYPSDIAVEWESNGQPENNYKTTPPVLDSDGSFFLYSKLTVDKSRWQQGNVFSCSVMHEALHNHYTQKSLSLSPGK
notes: Fc fragment of human IgG1 with hinge, produced in Pichia pastoris GFI6.0 host YGLY22834; also called YGLY28722; YGLY28725
The Kd is the concentration at which binding is half-saturated. With B1, the “fold change in affinity vs hFcDM” value with FcγRIIA H [1] stood at 1 fold; in assay [2], 100 fold; in assay [3], 9 fold. In addition, the dissociation constant (Kd) in [4] is 0.028 µM; in the assay with FcγRIIA H [5], 9.13 µM; in assay [6], 30.6 µM; in [7], 6.4 µM.

B2: 1F11 IgG1 F243A/V264A/S267E/L328F quadruple mutein anti-PCSK9 antibody (antibody)
heavy: QVQLVQSGAEVKKPGASVKVSCKVSGYTFTDYYMNWVRQAPGQGLEWIGDINPNNGGAIYNQKFKGRATLTVDKSTSTAYMELRSLRSDDTAVYYCTSGIITEIAEDFWGQGTLVTVSSASTKGPSVFPLAPSSKSTSGGTAALGCLVKDYFPEPVTVSWNSGALTSGVHTFPAVLQSSGLYSLSSVVTVPSSSLGTQTYICNVNHKPSNTKVDKKVEPKSCDKTHTCPPCPAPELLGGPSVFLAPPKPKDTLMISRTPEVTCVVADVEHEDPEVKFNWYVDGVEVHNAKTKPREEQYNSTYRVVSVLTVLHQDWLNGKEYKCKVSNKAFPAPIEKTISKAKGQPREPQVYTLPPSRDELTKNQVSLTCLVKGFYPSDIAVEWESNGQPENNYKTTPPVLDSDGSFFLYSKLTVDKSRWQQGNVFSCSVMHEALHNHYTQKSLSLSPG
light: DIQMTQSPSSLSASVGDRVTITCKASQNVGTNVVWYQQKPGKAPKALIHSASYRYSGVPSRFSGSGSGTDFTLTISSLQPEDFATYYCQQYKTYPYTFGQGTKVEIKRTVAAPSVFIFPPSDEQLKSGTASVVCLLNNFYPREAKVQWKVDNALQSGNSQESVTEQDSKDSTYSLSSTLTLSKADYEKHKVYACEVTHQGLSSPVTKSFNRGEC
notes: Produced in Pichia pastoris GFI6.0; The strains give the same polypeptide with different N-glycan profiles; also called 1F11 QM; YGLY25265
What is called EC50 (read off the curve) is the concentration at which the effect is half-maximal. A high value points to a need for much substance. As for B2, the “fold change in affinity vs 1F11 IgG1 GS5.0” value in assay [2] was 19 fold; with FcγRIIA H [8] it was 9 fold; in assay [9], more than 10000 fold; in assay [10], 103 fold. Also, the dissociation constant (Kd) with wild-type human PCSK9 is 0.00364 µM; in assay [4], 0.029 µM; with FcγRIIA H [5] it was 8.15 µM; in assay [15], more than 5 µM; in assay [16], more than 5 µM. Also, the “EC50 (read off the curve)” value in assay [11] was ~0.04 µg/mL and ~0.1 µg/mL; in assay [12], approximately 0.05 µg/mL; in [13], approximately 0.03 µg/mL; in assay [14], approximately 0.04 µg/mL.
